Results on eight molecules are retold here after patent US20180105596A1 (ELSALYS BIOTECH, published 2018).

The target in assay [1] is T1, extracellular domain of human Axl, Fc fusion (R&D Systems 154-AL-100) (human, UniProt P30530 26-451).
T1 construct: Bought protein; also called hAxl; hAXL; not shown: Fc of the bought ECD-Fc fusion
T1 sequence: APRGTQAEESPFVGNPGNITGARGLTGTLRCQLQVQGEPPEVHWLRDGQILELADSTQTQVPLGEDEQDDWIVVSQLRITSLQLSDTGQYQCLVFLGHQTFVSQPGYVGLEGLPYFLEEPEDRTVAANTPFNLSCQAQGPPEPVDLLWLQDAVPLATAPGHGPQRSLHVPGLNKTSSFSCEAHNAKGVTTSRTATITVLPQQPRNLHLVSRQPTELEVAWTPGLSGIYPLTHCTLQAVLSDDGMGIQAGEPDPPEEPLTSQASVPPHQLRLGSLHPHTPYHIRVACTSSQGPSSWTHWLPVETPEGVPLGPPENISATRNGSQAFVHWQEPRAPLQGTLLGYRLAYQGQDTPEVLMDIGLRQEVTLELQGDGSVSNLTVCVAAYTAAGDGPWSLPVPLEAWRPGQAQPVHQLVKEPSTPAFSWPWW
Put plainly: ELISA, ECD coated 1 µg/well, scFv 1 µg/mL, anti-tag-HRP. As to the method:
Extracellular domains of hTyro 3 (859-DK-100), hAxl (154-AL-100) or hMer (891-MR-100) from R&D Systems were coated onto 96-wells microtiter plates (1 μg/well) in PBS and incubated overnight at 4° C. Plates were washed three times with PBS and blocked in PBS/3% BSA for 1 hour at RT. Plates were washed as above and scFvs were added at 1 μg/mL (diluted in PBS) and incubated for 1 hour at RT. Plates were washed three times with PBST (PBS/0.01% Tween-20) and secondary antibody anti-FLAG-HRP was added (Abcam, ab49763, 1/5000 dilution in blocking buffer) for 1 hour at RT. Plates were washed as above with PBST and signal was developed with Ultra-TMB reagent (Thermo Scientific, 34028).

The target of assay [2] is T2, cynomolgus Tyro3 ECD, His-Strep tagged.
T2 construct: also called cyno TYRO3 ECD 8hisstrep
T2 extracellular domain: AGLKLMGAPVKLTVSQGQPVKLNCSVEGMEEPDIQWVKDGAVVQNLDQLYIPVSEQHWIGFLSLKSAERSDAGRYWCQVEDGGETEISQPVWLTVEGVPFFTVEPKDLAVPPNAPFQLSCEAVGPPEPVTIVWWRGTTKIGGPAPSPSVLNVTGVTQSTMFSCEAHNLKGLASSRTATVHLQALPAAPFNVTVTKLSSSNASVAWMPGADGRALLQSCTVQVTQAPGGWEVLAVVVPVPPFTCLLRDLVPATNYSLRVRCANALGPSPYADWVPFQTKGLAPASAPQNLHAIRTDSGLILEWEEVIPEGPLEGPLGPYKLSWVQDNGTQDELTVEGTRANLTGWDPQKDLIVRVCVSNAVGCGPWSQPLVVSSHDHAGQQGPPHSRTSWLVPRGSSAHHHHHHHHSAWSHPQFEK
Put plainly: sandwich ELISA, Strep-tagged cynomolgus Tyro3 ECD captured on StrepMAB plate, scFv 3-fold from 10 µg/mL, anti-FLAG-HRP. As to the method: [The procedure below names another species; the source lists this species under the same test.] A double sandwich ELISA was developed. This assay consisted in measuring the binding of the anti-Tyro3 antibodies to be tested on immobilized strep-tagged entire human Tyro3 ECD captured directly on ELISA plate pre-coated with an anti-strep mAb (StrepMAB-Immo coated microplates from IBA biotech). Briefly, the 96 wells of StrepMAB-Immo coated microplate were washed three times with 300 μL of the PBS Tween 0.2% (referred as ELISA washing solution). The capture of an excess of purified strep tagged hTyro3 ECD protein was achieved by a one hour incubation at room temperature. In these experiments, 3 μg of purified protein diluted in PBS, BSA 1% (referred as ELISA diluent solution) were immobilized per well. The wells were washed three times with 300 μL of the washing solution. The non-specific binding sites on the well surface were blocked during 60 min at room temperature with 200 μL/well of blocking solution (PBS, BSA 3%). The wells were washed five times with 300 μL of the washing solution. Then, 100 μl (in duplicates) of the different concentrations of anti-Tyro3 antibodies to be tested diluted in ELISA diluent solution, were added per well and allowed to incubate during 1 hour at room temperature. An Irrelevant control IgG2656 was also added in this experiment. For anti-Tyro3 antibodies in the ScFv format, experiments were performed with 6 concentrations in duplicates (FIG. 3A). For anti-Tyro3 antibodies in the IgG format, experiments were performed with 9 concentrations in duplicates (FIG. 3B). […] For IgGs experiments, starting concentration for first dilution was 3 μg/ml and then dilutions of 3 fold in the ELISA diluent solution were performed. The wells were washed five times with 300 μL of the washing solution. […] The mix was allowed to incubated 60 min at room temperature.

The target of assay [3] is T3, immunoglobulin-like domain Ig-2 of human Tyro3 (human, UniProt Q06418 139-220).
T3 construct: No fragment of Ig-2 alone was made
T3 sequence: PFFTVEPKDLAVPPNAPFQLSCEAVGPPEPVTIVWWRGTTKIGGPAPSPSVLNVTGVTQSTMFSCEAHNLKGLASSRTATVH
Put plainly: double sandwich ELISA on captured fragments of hTyro3 ECD.

For assay [4], the target named is T4, recombinant His-Strep tagged human Tyro3 extracellular domain (human, UniProt Q06418 41-429).
T4 construct: also called hTyro3 ECD; full Tyro3 ECD
T4 sequence: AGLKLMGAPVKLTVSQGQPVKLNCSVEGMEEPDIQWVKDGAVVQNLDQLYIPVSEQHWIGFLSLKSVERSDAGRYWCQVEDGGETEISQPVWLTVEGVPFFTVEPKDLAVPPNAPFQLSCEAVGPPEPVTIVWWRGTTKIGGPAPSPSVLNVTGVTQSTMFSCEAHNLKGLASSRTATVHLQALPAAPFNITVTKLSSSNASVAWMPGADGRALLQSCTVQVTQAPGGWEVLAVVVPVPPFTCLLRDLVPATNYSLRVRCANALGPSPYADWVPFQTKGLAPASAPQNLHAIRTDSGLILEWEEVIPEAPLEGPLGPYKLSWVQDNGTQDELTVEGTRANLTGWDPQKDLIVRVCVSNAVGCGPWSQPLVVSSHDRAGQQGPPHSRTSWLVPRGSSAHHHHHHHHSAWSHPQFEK
Put plainly: sandwich ELISA, Strep-tagged fragment captured on StrepMAB plate, scFv 10 µg/mL (Table 17), anti-FLAG-HRP.

Assay [5] has as its target T4, recombinant His-Strep tagged human …. The assay can be described thus: sandwich ELISA, Strep-tagged hTyro3 ECD captured on StrepMAB plate, scFv 3-fold from 10 µg/mL, anti-FLAG-HRP. As for the experimental part: A double sandwich ELISA was developed. This assay consisted in measuring the binding of the anti-Tyro3 antibodies to be tested on immobilized strep-tagged entire human Tyro3 ECD captured directly on ELISA plate pre-coated with an anti-strep mAb (StrepMAB-Immo coated microplates from IBA biotech). Briefly, the 96 wells of StrepMAB-Immo coated microplate were washed three times with 300 μL of the PBS Tween 0.2% (referred as ELISA washing solution). The capture of an excess of purified strep tagged hTyro3 ECD protein was achieved by a one hour incubation at room temperature. In these experiments, 3 μg of purified protein diluted in PBS, BSA 1% (referred as ELISA diluent solution) were immobilized per well. The wells were washed three times with 300 μL of the washing solution. The non-specific binding sites on the well surface were blocked during 60 min at room temperature with 200 μL/well of blocking solution (PBS, BSA 3%). The wells were washed five times with 300 μL of the washing solution. Then, 100 μl (in duplicates) of the different concentrations of anti-Tyro3 antibodies to be tested diluted in ELISA diluent solution, were added per well and allowed to incubate during 1 hour at room temperature. An Irrelevant control IgG2656 was also added in this experiment. For anti-Tyro3 antibodies in the ScFv format, experiments were performed with 6 concentrations in duplicates (FIG. 3A). […]

B1: anti-Tyro3 scFv 2414 (scFv, V domains shown)
VH: EVQLVQSGADVKKPGASLTISCQASGYTFTDYWISWVRQKPGKGLEWMGQINRHASNTMYGPSFQGHVTISADRSTATAYLQWRSLEASDTAMYYCVRSGGATSGGTIPEYYQHWGPGTLVTVSS
VL: SYELTQPPSVSVSPGQTARITCSGDALPKKYAYWYQQKSGQAPVLVIYEDWKRASGIPERFSGSSSGTMATLTISGAQVEDEADYYCYSQERKGNYFVFGGGTKLTVL
notes: Tested as a single-chain Fv made in E. coli
As for B1, the figures for the binding result in assay [1], in assay [2] and in assay [3] were “no binding (tested: 1 µg/mL)”, “binds” and “no binding (tested: 10 µg/mL)”, respectively.

B2: anti-Tyro3 scFv 2711 (scFv, V domains shown)
VH: EVQLVQSGADVKKPGASLTISCQASGYTFTDYWISWVRQKPGKGLEWMGQIRGQHSSTLYGPSFQGHVTISADRSTATAYLQWRSLEASDTAMYYCVRHGASTSGGTIPEYYQHWGPGTLVTVSS
VL: SYELTQPPSVSVSPGQTARITCSGDALPKKYAYWYQQKSGQAPVLVIYEDAKRSSGIPERFSGSSSGTMATLTISGAQVEDEADYYCYSLSDSGNYFVFGGGTKLTVL
notes: as for B1
Turning to B2, the binding result in assay [1] is recorded as “no binding (tested: 1 µg/mL)”; in assay [2] it was “binds”.

B3: anti-Tyro3 scFv 2415 (scFv, V domains shown)
VH: EVQLVQSGADVKKPGASLTISCQASGYTFTDYWISWVRQKPGKGLEWMGQIRGPASATHYGPSFQGHVTISADRSTATAYLQWRSLEASDTAMYYCVRHQQQTSGGTIPEYYQHWGPGTLVTVSS
VL: SYELTQPPSVSVSPGQTARITCSGDALPKKYAYWYQQKSGQAPVLVIYEDKKRISGIPERFSGSSSGTMATLTISGAQVEDEADYYCYSTSTGGNYMVFGGGTKLTVL
notes: as for B1
For B3, the results for the binding result in assay [1] and in assay [2] were “no binding (tested: 1 µg/mL)” and “binds”, respectively.

B4: anti-Tyro3 scFv 2412 (scFv, V domains shown)
VH: EVQLVQSGADVKKPGASLTISCQASGYTFTDYWISWVRQKPGKGLEWMGRIRPLLSHTMYGPSFQGHVTISADRSTATAYLQWRSLEASDTAMYYCVRSWLATSGGTIPEYYQHWGPGTLVTVSS
VL: SYELTQPPSVSVSPGQTARITCSGDALPKKYAYWYQQKSGQAPVLVIYEDAKRVSGIPERFSGSSSGTMATLTISGAQVEDEADYYCYSASANGNYRVFGGGTKLTVL
notes: as for B1
Regarding B4, the binding result in assay [1] is on record as “no binding (tested: 1 µg/mL)”; in assay [2], “binds”.

B5: anti-Tyro3 scFv 2713 (scFv, V domains shown)
VH: EVQLVQSGADVKKPGASLTISCQASGYTFTDYWISWVRQKPGKGLEWMGRISRHGSQTYYGPSFQGHVTISADRSTATAYLQWRSLEASDTAMYYCVRAGGQTSGGTIPEYYQHWGPGTLVTVSS
VL: SYELTQPPSVSVSPGQTARITCSGDALPKKYAYWYQQKSGQAPVLVIYEDHKRASGIPERFSGSSSGTMATLTISGAQVEDEADYYCYSISPAGNYGVFGGGTKLTVL
notes: as for B1
On to B5, for which the binding result is “no binding (tested: 1 µg/mL)” in assay [1] and “binds” in assay [2].

B6: anti-Tyro3 scFv 2709 (scFv, V domains shown)
VH: EVQLVQSGADVKKPGASLTISCQASGYTFTDYWISWVRQKPGKGLEWMGAISRNGSTTYYGPSFQGHVTISADRSTATAYLQWRSLEASDTAMYYCVRSGGLTSGGTIPEYYQHWGPGTLVPVSS
VL: SYELTQPPSVSVSPGQTARITCSGDALPKKYAYWYQQKSGQAPVLVIYEDKKRVSGIPERFSGSSSGTMATLTISGAQVEDEADYYCYSLAVDGNYGVFGGGTKLTVL
notes: as for B1
Consider B6, for which the binding result in assay [1] is given as “no binding (tested: 1 µg/mL)”; in assay [2], “binds”; in assay [4], “binds”; in assay [3] it was “no binding (tested: 10 µg/mL)”.

B7: anti-Tyro3 scFv 2717 (scFv, V domains shown)
VH: EVQLVQSGADVKKPGASLTISCQASGYTFTDYWISWVRQKPGKGLEWMGEIFLPPSTTVYGPSFQGHVTISADRSTATAYLQWRSLEASDTAMYYCVRQTRLTSGGTIPEYYQHWGPGTLVTVSS
VL: SYELTQPPSVSVSPGQTARITCSGDALPKKYAYWYQQKSGQAPVLVIYEDNKRGSGIPERFSGSSSGTMATLTISGAQVEDEADYYCYSKSPEGNYMVFGGGTKLTVL
notes: as for B1
As for B7, the binding result in assay [1] was “no binding (tested: 1 µg/mL)”; in assay [5], “binds”; in assay [2] it was “binds”; in assay [3], “no binding (tested: 10 µg/mL)”.

B8: anti-Tyro3 scFv 2410 (scFv, V domains shown)
VH: EVQLVQSGADVKKPGASLTISCQASGYTFTDYWISWVRQKPGKGLEWMGQIVPRASRTNYGPSFQGHVTISADRSTATAYLQWRSLEASDTAMYYCVRPYFQTSGGTIPEYYQHWGPGTLVTVSS
VL: SYELTQPPSVSVSPGQTARITCSGDALPKKYAYWYQQKSGQAPVLVIYEDEKRASGIPERFSGSSSGTMATLTISGAQVEDEADYYCYSQERNGNYAVFGGGTKLTVL
notes: as for B1
For B8, the binding result in assay [1] was “no binding (tested: 1 µg/mL)”; in assay [2] it was “binds”; in assay [3] it was “no binding (tested: 10 µg/mL)”.
